From patent publication US20190359674A1
Positions of bridges follow the written chain, without caps; N, C: chain ends. Non-standard residues stand in square brackets, D forms with d. Dap = NC[C@H](N)C(=O)O

Target: T1, recombinant human MAS1 receptor (human), P04201
T1 chain: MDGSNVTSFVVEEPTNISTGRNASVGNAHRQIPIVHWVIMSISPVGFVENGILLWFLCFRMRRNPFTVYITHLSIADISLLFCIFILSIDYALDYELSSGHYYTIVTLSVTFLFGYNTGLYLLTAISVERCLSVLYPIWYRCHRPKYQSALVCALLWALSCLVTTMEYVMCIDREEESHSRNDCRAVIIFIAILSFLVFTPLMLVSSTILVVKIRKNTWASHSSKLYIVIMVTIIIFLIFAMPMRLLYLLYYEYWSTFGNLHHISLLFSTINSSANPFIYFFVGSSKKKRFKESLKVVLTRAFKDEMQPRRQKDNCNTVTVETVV
Experiment: cell-based or functional assay

activity in the MAS1 activation (NO release) assay relative to peptide AT1-7, at 10 nM (% of AT1-7 activity): 90
B1: cyclotide MCo-AT1-7 (designed binder)
chain: GGVCPKILQRCRRDSDCPGACICRGNGYCGSG[Dap]RVYIHE-OH
modifications: disulfide 11-23, 17-29, 4-21; lactam N-39 (inferred); also: Gly32 joined to Dap33 β-amino group by isopeptide bond, Dap33 α-amino group free
